T1: ARF5 DNA-binding domain (ARF5-DBD) (UniProt P93024 120-274)
T1 sequence: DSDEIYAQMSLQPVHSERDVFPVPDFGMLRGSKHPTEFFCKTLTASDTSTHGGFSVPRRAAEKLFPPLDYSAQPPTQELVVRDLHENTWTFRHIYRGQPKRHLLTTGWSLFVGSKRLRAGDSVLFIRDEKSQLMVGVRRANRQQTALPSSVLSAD

B1: WOX4b (dsDNA)
DNA 1: AATCTGTCATTACCGACATAGT
DNA 2: ACTATGTCGGTAATGACAGATT
B2: WOX4a (dsDNA)
DNA 1: GCTCCATGCAGACATGAACATA
DNA 2: TATGTTCATGTCTGCATGGAGC

Target: T1, ARF5 DNA-binding domain (ARF5-DBD)
Assay: EMSA; EMSA: 12.5 pmol ARF5-DBD (doubled in competition), 200 fmol Cy5 probe, 10 mM Tris-HCl pH 7.4, 75 mM NaCl, 50 ng/ul poly(dI-dC), 1 mM DTT, 20 min room temperature; 6% native gel, 0.5x TBE
Conditions: protein: recombinant; tags: 6xHis-MBP removed by TEV protease; label: 5' Cy5 (both strands); blunt

| Binder | binding result |
| --- | --- |
| B1 | no binding |
| B2 | binds |

Source: article PMC5830446, “Spatial specificity of auxin responses coordinates wood formation”
